The text below walks through data of patent publication US12344890B2, “Process for cognate nucleotide detection in a nucleic acid sequencing workflow” (priority 2017, dated 2025).

Data set [1] relates to Nc1ccn([C@H]2C[C@H](O)[C@@H](COP(=O)(O)OP(=O)(O)OP(=O)(O)O)O2)c(=O)n1. Description: purified protein, by the assay type. The note with it: other: incorporation assay, Therminator DNA polymerase; averaged from three trials.
The test system of data set [2] is Nc1ncnc2c1ncn2[C@H]1C[C@H](O)[C@@H](COP(=O)(O)OP(=O)(O)OP(=O)(O)O)O1. Kind of data set: purified protein, by the assay type. The note with it: other: incorporation assay, Therminator DNA polymerase; averaged from three trials.
The subject of data set [3] is Nc1nc2c(ncn2[C@H]2C[C@H](O)[C@@H](COP(=O)(O)OP(=O)(O)OP(=O)(O)O)O2)c(=O)[nH]1. Kind of data set: purified protein, by the assay type. As to conditions: other: incorporation assay, Therminator DNA polymerase; averaged from three trials.
Data set [4] concerns the target T1, Therminator™ DNA polymerase (Thermococcus sp., UniProt Q56366, A485L/D141A/E143A).
T1 construct: purchased New England BioLabs
Type of data set: biochemical, Thermococcus species 9° N. The note with it: incorporation assay, averaged from three trials. From the text:
Each nucleotide included a fluorescent moiety constructed on a Cy-5 scaffold. […] In the case of the labeled dUTP analog, the comparison was against dTTP.

T1 sequence (Q56366 whole entry D141A/E143A/A485L): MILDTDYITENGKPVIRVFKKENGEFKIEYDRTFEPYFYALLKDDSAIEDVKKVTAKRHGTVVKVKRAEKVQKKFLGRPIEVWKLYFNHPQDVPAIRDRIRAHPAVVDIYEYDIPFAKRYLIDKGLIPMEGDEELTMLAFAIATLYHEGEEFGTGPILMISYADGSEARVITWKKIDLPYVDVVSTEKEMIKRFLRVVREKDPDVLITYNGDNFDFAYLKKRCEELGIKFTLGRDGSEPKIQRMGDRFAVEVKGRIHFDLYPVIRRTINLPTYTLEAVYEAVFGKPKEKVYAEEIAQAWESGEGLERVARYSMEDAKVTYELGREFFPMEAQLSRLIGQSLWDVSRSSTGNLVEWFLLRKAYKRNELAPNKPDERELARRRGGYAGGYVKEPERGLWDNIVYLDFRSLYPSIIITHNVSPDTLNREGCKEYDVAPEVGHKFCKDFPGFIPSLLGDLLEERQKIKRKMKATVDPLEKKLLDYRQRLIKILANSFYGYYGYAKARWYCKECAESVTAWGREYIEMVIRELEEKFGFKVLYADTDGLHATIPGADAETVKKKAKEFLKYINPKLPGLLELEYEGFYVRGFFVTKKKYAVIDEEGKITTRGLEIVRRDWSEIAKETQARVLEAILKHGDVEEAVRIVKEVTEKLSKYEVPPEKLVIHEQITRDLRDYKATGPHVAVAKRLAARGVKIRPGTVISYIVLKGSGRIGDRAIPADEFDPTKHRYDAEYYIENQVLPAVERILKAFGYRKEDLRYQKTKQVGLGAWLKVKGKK

As usually defined, the Km is the substrate concentration at which the rate is half of its maximum. As for “Therminator™ DNA polymerase (Thermococcus sp. 9oN-7; A485L/D141A/E143A)”, the Michaelis constant (Km) in data set [1] was found to be 0.82 µM; in data set [2], 0.05 µM; in data set [3], 0.23 µM.
Turning to `Cc1cn([C@H]2C[C@H](O)[C@@H](COP(=O)(O)OP(=O)(O)OP(=O)(O)O)O2)c(=O)[nH]c1=O` [dTTP, 2′-deoxythymidine-5′-triphosphate], the Km in data set [4] came to 0.92 µM.
